Source: paper PMC7338556, “A Truncated Form of HpARI Stabilizes IL-33, Amplifying Responses to the Cytokine” (Frontiers in Immunology, 2020)

B1: recombinant murine IL-33 (ligand)
chain: SIQGTSLLTQSPASLSTYNDQSVSFVLENGCYVINVDDSGKDQEQDQVLLRYYESPCPASQSGDGVDGKKLMVNMSPIKDTDIWLHANDKDYSVELQRGDVSPPEQAFFVLHKKSSDFVSFECKNLPGTYIGVKDNQLALVEEKDESCNNIMFKLSKI
modifications: Reduced (active) form with free cysteines. Limits are not given; the usual commercial (BioLegend) mature mouse IL-33, Ser109-Ile266, is assumed, matching the candidate chain 109-266

What was measured:
recombinant murine IL-33 = target: B1; test: SPR; HpARI, HpARI_CCP1/2 or HpARI_CCP2/3 captured via the hexa-His tag and covalently stabilised on an NTA chip (400 RU); mIL-33 2.47-200 nM injected, single-cycle kinetics, 25 °C; 10 mM NaH2PO4 pH 7.5, 150 mM NaCl, 50 μM EDTA, 0.05% P20; global fit of a 1:1 model with mass transport; conditions: both partners purified
[1] = target: T1, H. polygyrus Alarmin Release Inhibitor (HpARI), full-length (Heligmosomoides polygyrus); test: as above; conditions: both partners purified
T1 construct: It was cloned into the secretion vector pSecTAG2A, so the native signal peptide may be missing and a vector leader used (surmise); also called full-length HpARI; source: Expi293F cells, transfected (pSecTAG2A), purified from supernatant (HisTrap excel, HiTRAP chelating HP Ni column); not shown: His6, C-terminal, kept

Row | Binder | Kd (recombinant murine IL-33) | koff (recombinant murine IL-33) | Kd [1] | koff [1]
1 | HpARI_CCP1/2 (HpARI truncation lacking CCP3) (domain or fragment) AGQRCRFTDVERDKGYTGMLLKGRLRKTAGNGRTVELICGRGNHNYTCESGVLKESSPRQARCGCKGILEMLFDMPKEERPSPMYDSVTYDPTPNTPTTVGKDGIWNGVDYRNGSTVKPYCDTGPVINGSSKAVCVSGKWVPTLGVCPK | 9.8 nM | 0.003 s⁻¹ | – | –
2 | B1 | – | – | 1.1 nM | 0.00015 s⁻¹
3 | HpARI_CCP2/3 (HpARI truncation lacking CCP1) (domain or fragment) TYDPTPNTPTTVGKDGIWNGVDYRNGSTVKPYCDTGPVINGSSKAVCVSGKWVPTLGVCPKMCSIGSLKENGKFVDVTATTKGDELNPPPREQTLIPIVRKVDKDKVQHGVKVVALCKAEDSTTAAEGVQEFECDNGKWKPEPVPCP | 1.4 nM | – | – | –
